Reference: US6022708

Experiments:
[1] = target: Myelin Basic Protein (Sigma)
[2] = target: transcription factor GLI, the mammalian homologue of the Drosophila cubitus interruptus (Ci)

| amount of 32P incorporated into MBP, in vitro kinase assay on anti-HA immunoprecipitates (times higher compared to controls) [1] | GLI activity, luciferase reporter p9XGliLuc in C3H10T1/2 cells [2] [fold] | Substance |
| --- | --- | --- |
| 3 | – | fused KD (kinase domain of human fused alone), HA epitope tagged (enzyme) |
| 2 | – | human fused (wild type, full length), HA epitope tagged (enzyme) |
| – | 9.5 | human fused (wild type, full length), HA epitope tagged |
